Laboratory results from the supplement of paper PMC10567573.
± gives the standard deviation.

Test: protein stability index of a GFP-peptide fusion (GPS, HEK-293T) (PSI 1-6); higher = more stable
[1] = treatment: DMSO, c terminus: a fixed tail appended
[2] = treatment: MLN4924 1 uM, 8 h, c terminus: a fixed tail appended
[3] = treatment: DMSO, c terminus: native
[4] = treatment: MLN4924 1 uM, 8 h, c terminus: native
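Note: 24-mer peptide tiles fused after GFP, lentivirally expressed, FACS-sorted into six equal bins by GFP/DsRed ratio, decoded by Illumina sequencing, PSI is the read-weighted mean bin number.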

Sequence	protein stability index [1]	protein stability index [2]	protein stability index [3]	protein stability index [4]
DVALALAALDGGRSLEELTRLAFE [LPCAT4]	2.06 ± 0.68	2.12 ± 0.19	–	–
DVKDKETTENENTKFEVRLLRDPA [CHGB]	4.33 ± 0.41	4.7 ± 0.3	–	–
DVTLEASRESSKPRAVLKPRRVCV [PPP2R2C]	3.68 ± 0.1	3.78 ± 0.21	–	–
DVVRSLLRRGASVNRTTRTNSTPL [FEM1A]	2.75 ± 0.29	2.65 ± 0.27	–	–
DVYRDGTGVVEFVRKEDMTYAVRK [SRSF1]	3.96 ± 0.26	4.47 ± 0.18	–	–
DWVPVESLLRPLNSLAALDLSGIQ [ZER1]	2.42 ± 0.61	2.41 ± 0.49	–	–
EAAVEALELLGATYVDKKRDLLGA [FEM1A]	3.27 ± 0.31	3.49 ± 0.21	–	–
EADYEDDSKIAFLMQLQDIQYLTE [IQUB]	3.3 ± 0.2	3.38 ± 0.57	–	–
EAFCHANCSGPAPAAKPDPDGGRA [P3H4]	4.82 ± 0.15	4.79 ± 0.19	–	–
EAHFMLQVADINDNPPTFSQVSYF [PCDHGA10]	2.34 ± 0.41	2.33 ± 0.25	–	–
EAINFCRGLGSQASTVTEIVKQQD [ACSBG2]	4.12 ± 0.11	4.11 ± 0.18	–	–
EASERFAAGYIQCMHEVHTFVSTC [HES6]	2.21 ± 0.23	2 ± 0.36	–	–
EDHNENGHTPLMEAGSAGHVEVAR [ANKRD17]	5.63 ± 0.12	5.36 ± 0.12	–	–
EDPSQQFLQQSLERVYSLQHLDPQ [INTS4]	4.18 ± 0.17	4.42 ± 0.23	–	–
EDQEGSPPETSLPYKWVVEAANLL [MYBL2]	3.96 ± 0.18	3.915 ± 0.031	–	–
EDQGRTRKRKQSGHSPARAGKQRM [DDIT3]	4.96 ± 0.27	4.96 ± 0.089	–	–
EDQYQFSYRAALEYLGSFDHYAT [PTPRD]	–	–	2.61 ± 0.49	2.69 ± 0.34
EEEPSHVTGREGFPTDAPYPTTLG [ZNF8]	5.17 ± 0.14	5.17 ± 0.14	–	–
EEGESLLCLACSAGYYELAQVLLA [ANKRD17]	2.17 ± 0.4	2.39 ± 0.25	–	–
EEILTLFCGAPPVTPIIVLSIINF [PHTF1]	2.84 ± 0.26	2.97 ± 0.51	–	–
EELDGLCFKGELPLRAVHINLEEK [PLEKHN1]	4.41 ± 0.26	4.44 ± 0.29	–	–
EELKAELVQLEDEITTLRQVLSAK [TPD52L1]	4.34 ± 0.32	4.22 ± 0.28	–	–

Sequence	protein stability index [1]	protein stability index [2]	protein stability index [3]	protein stability index [4]
EFYLLELMDCCLIVYHPYRPLLQY [CCNC]	3.08 ± 1.3	2.98 ± 0.45	–	–
EGGVLRGSKLEKGHLRGPEIRDWR [ZSWIM9]	3.8 ± 0.2	4.02 ± 0.31	–	–
EGSCYQTFRQYCGAACTCHVRNPL [RNF208]	2.4 ± 0.37	2.6 ± 0.2	–	–
EGSYRIHVLHHGTGKWYELQDLQV [USP39]	2.73 ± 0.69	2.58 ± 0.77	–	–
EHDRETRMQYAPDLMKRLRFALIP [KLHL14]	2.77 ± 0.26	2.56 ± 0.16	–	–
EHRHLNPDTELKRYFGARAILGEQ [TCF25]	3.46 ± 0.32	3.47 ± 0.54	–	–
EIDRSVENTLLNSQMVSTDNSLSS [MIA2]	4.18 ± 0.35	4.67 ± 0.23	–	–
EIKSMKKRMSELCIDFNKNLNEDD	4.64 ± 0.6	–	–	–
EILGIEPDREKGFHLDVEDYLSGV [TSN]	3.27 ± 0.22	3.45 ± 0.41	–	–
EISALNGNRINVPMVRKRSVSNST [DLC1]	3.5 ± 0.071	3.5 ± 0.32	–	–
EKELISMECYDIYSKTWTKQPDLT [GAN]	3.21 ± 0.25	3.28 ± 0.36	–	–
EKHPKKPEPQQKAPLVPPPPPPPP [SRPK2]	5.42 ± 0.22	5.47 ± 0.09	–	–
EKPPRPEAKSAQPADGWKGERPRS [GCH1]	5.2 ± 0.2	5.21 ± 0.11	–	–
EKQSRCVNIEWHRFRFGQDQLLLA [WSB1]	2.14 ± 0.24	2.6 ± 0.42	–	–
ELERARELKEKEATLCLEFLLQND [ANKRD44]	3.94 ± 0.2	4.13 ± 0.35	–	–
ELFDKLSLRFNGRVLFIKDVIGDE [KCTD10]	2.08 ± 0.22	2.82 ± 0.59	–	–
ELFSYLRNRGRFSSTTGLFYSAEI [PRKX]	2.36 ± 0.84	2.44 ± 1.3	–	–
ELKPEDKDPRDPEESKEPKEEKQR [GNAS]	5.22 ± 0.48	5.7 ± 0.3	–	–
ELLDEKLLARGTMQPFNYVTLQCL [FEM1A]	2.56 ± 0.41	2.44 ± 0.57	–	–
ELQGLDYCKPTRLDLLLDMPPVSY [SPSB1]	2.31 ± 0.14	2.38 ± 0.11	–	–
ELVLRKDCPKIVEPHGKMFNEQTW [ZSCAN9]	2.86 ± 0.38	2.78 ± 0.3	–	–
EMERTQAQLRDAVQSLQLSPRTRG [RASAL3]	4.96 ± 0.36	4.77 ± 0.49	–	–

Sequence	protein stability index [1]	protein stability index [2]	protein stability index [3]	protein stability index [4]
EMIITKAGRRMFPSYKVKVTGLNP [TBX5]	2.12 ± 0.14	2.4 ± 0.32	–	–
ENAQKKRFNQVLKNLLHAEFLRVQ [VPS39]	2.73 ± 0.43	2.29 ± 0.39	–	–
ENFEDVGHSTDAREMSKTFIIGEL [CYB5A]	3.95 ± 0.4	3.89 ± 0.29	–	–
ENLFTGEDLDELEEELNTLDLEE [ZC3H15]	–	–	4.26 ± 0.32	4.65 ± 0.32
ENQSSQAELKEAVEEPSSKDVMEK [CHGA]	5.6 ± 0.12	5.72 ± 0.19	–	–
EPQGLGYWEAWRHHCQGKDLTEWV [SPACA3]	3.85 ± 0.2	3.8 ± 0.45	–	–
EPSRSASEADSEAGELRKPTQEEW [PPEF2]	5.68 ± 0.33	5.81 ± 0.16	–	–
EQEPELSFLKQKEQLEAEAQALRQ [PBXIP1]	5.42 ± 0.19	5.29 ± 0.21	–	–
EQMKVYKCEHCRVLFLDHVMYTIH [IKZF1]	2.37 ± 0.34	2.23 ± 0.41	–	–
EQVFLYENARSGAEAEPEDQDEGE [ZBED1]	5.7 ± 0.25	5.52 ± 0.4	–	–
ERCLLNNSLWKKNKTICKERLQIL [NLN]	2.31 ± 0.26	2.7 ± 0.49	–	–
ERKKVQIRSMDPSALASDRFNLIL [DCAF4]	2.29 ± 0.16	2.5 ± 0.23	–	–
ERLYVIGGNHFRGTSDYDDVLSCE [KLHL13]	3.28 ± 0.19	3.35 ± 0.18	–	–
ERVALANRKRECGNAHYQRADFVL [FKBP8]	2.98 ± 0.27	2.75 ± 0.12	–	–
ESHKAKNESWIKSHFSRLSEEKLA [C10orf62]	3.81 ± 0.17	3.86 ± 0.35	–	–
ESLDYDRCINDPYLEVLETMDNKK [CLCN6]	5.21 ± 0.25	5.29 ± 0.37	–	–
ESNVSMASLGEKRDHHSTHYRASE [CHGB]	4.71 ± 0.27	4.79 ± 0.33	–	–
ESTPVGTVVGLFNVRDRDSGRNGE [PCDHGC5]	4.92 ± 0.33	4.89 ± 0.31	–	–
ESVDEAGGSGPAGLRASTSDGILR [RHOBTB2]	5.14 ± 0.21	5.16 ± 0.2	–	–
ETALTLACCGGFLEVADFLIKAGA [ANKRD17]	2.54 ± 0.9	2.65 ± 0.76	–	–
ETFLSFLEYLYTDSCCPAGIFQAM [RHOBTB3]	2.96 ± 0.48	2.56 ± 0.35	–	–
